For assay [1], the system named is dopaminergic neurons of the right substantia nigra pars compacta. Put plainly: 6-OHDA mouse model, number of DA (TH+) neurons. The class given is in vivo, mice. The procedure: We aimed at determining whether B08 or D06 anti-CD38 antibodies were neuroprotective in vivo against neurodegeneration induced by oxidative stress. Mouse were administered with 6-hydroxydopamine (6-OHDA) in the right striatum. Since 6-OHDA is an analogue of dopamine, it is transported in dopaminergic neurons through the dopamine transporter, resulting in a specific degeneration and loss of dopaminergic neurons of the right substantia nigra pars compacta. It has been extensively used as a test system for novel symptomatic agents and for assessment of neuroprotective and neurorepair strategies (Galindo et al., 2014. In Kostrzewa (Ed.), Handbook of neurotoxicity (1st Ed., pp. 639-651). New York: Springer-Verlag). Since 6-OHDA is injected unilaterally in the right striatum, left striatum remains unaffected and each mouse is its own control.
Two in vivo mouse models were used: the 6-OHDA mouse model and the MPTP mouse model. For the 6-OHDA mouse model, the intoxication protocol was based on the unilateral stereotaxic intrastriatal injection of 6-OHDA in the right striatum. Intracerebral or intravenous injections of treatments were made either the day before the surgical stereotaxic procedure, concomitantly with 6-OHDA during the surgical stereotaxic procedure, or two days after 6-OHDA injection. Animals were sacrificed 8 days after the surgical stereotaxic procedure.
For unilateral 6-OHDA mouse model, animals were anesthetized using Chloral hydrate (400 mg/kg, i.p.) and placed into a stereotactic frame adapted to mice. The injection was performed using a Hamilton syringe at the following coordinates: AP: […], ML: […], DV: […] (corresponding to the atlas of Franklin and Paxinos, 1997). A total volume of 2.5 μL containing or not 5 μg of 6-OHDA diluted in PBS in the presence or the absence of test treatments was injected. The needle was left in place for 10 min after the injection before retraction.
Mice were sacrificed by cervical dislocation, and beheaded to collect brain and blood samples. The brain was fixed in a paraformaldehyde solution (4%) during 1 day before being soaked in sucrose (30%) during 2 days and then froze at −80° C. for further analysis.
Each brain was sliced using a freezing microtome at −30° C. The thickness of each slice was 20 μm. The slicing was done around the substantia nigra (80 slices from slice 51 to 63 according to Allen Mouse Brain).
Slices were then washed out in PBS and incubated with anti-Tyrosine Hydroxylase to stain dopaminergic neurons (Abcam®) during 2 days, at 4° C., with agitation. Slices were incubated with corresponding secondary antibody in the presence of DAPI (Sigma Aldrich®) to stain cell's nuclei during 2 hours at room temperature, and mounted on gelatin-coated slides.
The slices were imaged using a Nikon TE2000 U equipped with a Hamamatsu ORCE-ER camera or with a Zeiss Axio Vert.A1 equipped with an axiocam 503 mono camera. Image analysis was done using Image J software or Zen (Zeiss®).

In assay [2] the test system is human peripheral blood mononuclear cells (PBMCs). Put plainly: IL-10 release from human PBMCs in vitro (ELISA). In kind it is cell-based. The note with it: PBMCs from 3 healthy donors; 10 μg/ml; LPS 500 ng/mL and interferon-γ 1B 100 ng/mL; 24 hours. The procedure: 3 healthy volunteers (Donor 1: Donor 2: Donor 3) served as blood donors. Venous blood (5 mL) was collected into heparinized tubes and immediately processed. Briefly, blood was diluted 1/1 in pre-warmed RPMI 1640 medium. PBMCs were isolated using gradient centrifugation in Ficoll solution (Sigma; 300×g, 30 min). Isolated PBMCs were re-suspended in 1 volume of pre-warmed RPMI 1640 medium and centrifuged again (300×g, 30 min). PBMCs were re-suspended in RPMI 1640 medium supplemented with 10% human serum (Sigma-Aldrich) at a concentration of 10^7 cells per mL. Cells were seeded in 96 well microplate (100 μL per well). Test compounds (10 μg/ml), LPS (500 ng/mL) and interferon-γ 1B (100 ng/mL) were added to PBMCs culture immediately after plating. After 24 hours, cell culture supernatants were collected and frozen at −80° C. for further processing.
IL-10 levels in cell culture supernatants were assayed using an ELISA human IL-10 kit (Ozyme®) according to the indications for use specified by the manufacturer.
(ELISA stands for enzyme-linked immunosorbent assay.)

Assay [3] has as its system midbrain dopaminergic (TH+) neurons. In words: MPP+ intoxication model in midbrain cell cultures, survival of DA (TH+) neurons. The conditions noted are these: for neuroprotective effect against MPP+-induced DA cell death, compared with reference clone HB7: 3 μM MPP+ between 5 and 7 DIV, each clone and HB7 0.5 μg/mL; for neuroprotective effect in the presence of the lysosomal exocytosis inhibitor vacuolin-1: 3 μM MPP+, test substance 1 μg/mL, vacuolin-1 10 μM. The class given is cell-based, Wistar rat. The procedure: For this purpose, spontaneously occurring DA cell death was prevented by a treatment combining depolarizing concentrations of K^+ (30 mM) and MK801 (5 μM), a glutamate receptor antagonist used to prevent unwanted excitotoxic insult. The cultures were then exposed to 3 μM MPP between 5 and 7 days in vitro (DIV) to achieve a loss of approximately 50% of DA neurons.
Animals were treated in accordance with the Guide for the Care and Use of Laboratory Animals (National Research Council, 1996), European Directive 86/609, and the guidelines of the local institutional animal care and use committee. Cultures were prepared from the ventral mesencephalon of gestational age 15.5 Wistar rat embryos (Janvier Breeding Center, Le Genest St Isle, France). Dissociated cells in suspension obtained by mechanical trituration of midbrain tissue pieces were seeded at a density of 1.2-1.5×10^5 cells/cm^2 onto tissue culture supports precoated with 1 mg/mL polyethylenimine diluted in borate buffer pH 8.3 as described (Michel et al., 1997. J Neurochem. 69(4):1499-507). The cultures were then maintained in N5 medium supplemented with 5 mM glucose, 5% horse serum, and 0.5% fetal calf serum, except for the first 3 DIV, when the concentration of fetal calf serum was 2.5% to favor initial maturation of the cultures (Guerreiro et al., 2008. Mol Pharmacol. 74(4):980-9). They were fed daily by replacing 70% of the medium. Routinely, mesencephalic cultures were established on Nunc 24-well culture plates (Thermofischer Scientific, Rochester, N.Y.). Note that these cultures contain tyrosine hydroxylase (TH)^+ neurons that were exclusively dopaminergic (Traver et al., 2006. Mol Pharmacol. 70(1):30-40). TH^+ neurons represented approximately 1-2% of the total number of neuronal cells present in these cultures. The evaluation of the survival of DA neurons was performed by counting cells immunopositive for TH as described (Toulorge et al., 2011. Faseb J. 25(8):2563-73).
Treatments with MPP were performed in cultures where the spontaneous death process was prevented by long-term exposure to depolarizing concentrations of K^+ (30 mM), in the presence of the glutamate receptor antagonist MK801 (5 μM) to prevent unwanted excitotoxic insults as described previously (Douhou et al., 2001. J Neurochem. 78(1): 163-74). Treatments with MPP and potential neuroprotective molecules were carried out between 5 and 7 DIV.
The cultures were fixed for 12 min using 4% formaldehyde in Dulbecco's phosphate-buffered saline (PBS), then washed twice with PBS before an incubation step at 4° C. for 24 h with the following antibodies. A monoclonal anti-TH antibody diluted 1/5000 (ImmunoStar, Inc., Hudson, Wis.) was used to assess the survival of DA neurons. Antibody was diluted in PBS containing 0.2% Triton X-100. Detection of the primary antibodies was performed with an Alexa Fluor-488 conjugate of an anti-mouse IgG antibody.

Turning to “Daratumumab: anti-CD38 antibody Daratumumab [reference compound]”, the “neuroprotective effect in 6-OHDA model” value in assay [1] (15 mg/kg iv one day before 6-OHDA injection) is given as “failed to demonstrate neuroprotective activity”.

B1: Clone C05: anti-human CD38 antibody, HCVR SEQ ID NO: 34 and LCVR SEQ ID NO: 40 (antibody, V domains shown)
VH: EVQLVESGGSLVKPGGSLRLSCAASGFTFSNNYMNWVRQAPGKGLEWISSISGSSRYISYADFVKGRFTISRDNAKNSLYLQMNSLRAEDTAVYYCVRSSSSYYYSGNGMDVWGRGTLVTVSS
VL: QSVLTQPASVSGSPGQSITISCAGTSSDVGGSSYVSWYQQHPGKAPKLMIYYDSYRPSGVSNRFSGSKSGNTASLTISGLQAEDEADYYCSSNTYYSTRVFGGGTKL
modifications: HCVR C05; LCVR C05/C06
As for B1, the IL-10 release result in assay [2] is on record as “statistically significantly increased”. In assay [3], the “neuroprotective effect against MPP+-induced DA cell death, compared with reference clone HB7” value was “stronger neuroprotective effect” and the “neuroprotective effect in the presence of the lysosomal exocytosis inhibitor vacuolin-1” value is reported as “antagonized”.

B2: Clone C06: anti-human CD38 antibody, HCVR SEQ ID NO: 35 and LCVR SEQ ID NO: 40 (antibody, V domains shown)
VH: EVQLVESGGSLVKPGGSLRLSCAASGFTFSNSAMNWVRQAPGKGLEWISSISGSSRNIYYADFVKGRFTISRDNAKNSLYLQMNSLRAEDTAVYYCVRSSYSSYGSGNGMDVWGRGTLVTVSS
VL: QSVLTQPASVSGSPGQSITISCAGTSSDVGGSSYVSWYQQHPGKAPKLMIYYDSYRPSGVSNRFSGSKSGNTASLTISGLQAEDEADYYCSSNTYYSTRVFGGGTKL
modifications: HCVR C06; LCVR C05/C06
Regarding B2, the “neuroprotective effect in the presence of the lysosomal exocytosis inhibitor vacuolin-1” value in assay [3] is “antagonized”.

B3: Clone D06: anti-human CD38 antibody, HCVR SEQ ID NO: 36 and LCVR SEQ ID NO: 41 (antibody, V domains shown)
VH: EVQLVESGGSLVKPGGSLRLSCAASGFTFSNYDMNWVRQAPGKGLEWISYIYGSSRDISYADFVKGRFTISRDNAKNSLYLQMNSLRAEDTAVYYCVRSSGYYFGYGMDVWGRGTLVTVSS
VL: QSVLTQPASVSGSPGQSITISCAGTSSDVGGSYYVSWYQQHPGKAPKLMIYSDSYRPSGVSNRFSGSKSGNTASLTISGLQAEDEADYYCSSNTAYSTRVFGGGTKL
modifications: HCVR D06; LCVR D06
In the case of B3, in assay [1] (0.1 mg/kg injected intracerebrally concomitantly with 6-OHDA), the “protection of dopaminergic neurons of the right substantia nigra pars compacta” value was “statistically significantly protected”. Besides, the IL-10 release result in assay [2] was “statistically significantly increased”. In addition, in assay [3], the “neuroprotective effect against MPP+-induced DA cell death, compared with reference clone HB7” value is on record as “stronger neuroprotective effect” and the “neuroprotective effect in the presence of the lysosomal exocytosis inhibitor vacuolin-1” value is “antagonized”.

B4: Clone D10: anti-human CD38 antibody, HCVR SEQ ID NO: 38 and LCVR SEQ ID NO: 42 (antibody, V domains shown)
VH: EVQLVESGGSLVKPGGSLRLSCAASGFTFSNSAMNWVRQAPGKGLEWISSISGSSRDIYYADFVKGRFTISRDNAKNSLYLQMNSLRAEDTAVYYCVRSSSSYYYSGNGMDVWGRGTLVTVSS
VL: QSVLTQPASVSGSPGQSITISCAGTSSDVGGNSYVSWYQQHPGKAPKLMIYYDSYRPSGVSNRFSGSKSGNTASLTISGLQAEDEADYYCSSNTYYSTRVFGGGTKL
modifications: HCVR D10; LCVR D07/D10
As for B4, in assay [3], the “neuroprotective effect against MPP+-induced DA cell death, compared with reference clone HB7” value was “stronger neuroprotective effect”.

B5: Clone D07: anti-human CD38 antibody, HCVR SEQ ID NO: 37 and LCVR SEQ ID NO: 42 (antibody, V domains shown)
VH: EVQLVESGGSLVKPGGSLRLSCAASGFTFSNSAMNWVRQAPGKGLEWISYISGSSRDISYADFVKGRFTISRDNAKNSLYLQMNSLRAEDTAVYYCVRSSSSYYYSGSGMDVWGRGTLVTVSS
VL: QSVLTQPASVSGSPGQSITISCAGTSSDVGGNSYVSWYQQHPGKAPKLMIYYDSYRPSGVSNRFSGSKSGNTASLTISGLQAEDEADYYCSSNTYYSTRVFGGGTKL
modifications: HCVR D07; LCVR D07/D10
With B5, the IL-10 release entry in assay [2] is on record as “statistically significantly increased”. In assay [3], the “neuroprotective effect in the presence of the lysosomal exocytosis inhibitor vacuolin-1” value is given as “antagonized”.

(Values after patent US20220089765A1, “CD31 COMPETITORS AND USES THEREOF” (ENCEFA, priority 2019, published 2022).)
